Residue numbers refer to the chain shown, from its start.
B1: RSV/B.148 (other)
chain: QNITEEFYQSTCSAVSRGYLSALRTGWYTSVITIELSNIKETKCNGTDTKVKLIKQELDKYKNAVTELQLLMQNTPAVNNRARREAPQYMNYTINTTKNLNVSISKKRKRRFLGFLLGVGSAIASGIAVCKVLHLEGEVNKIKNALQLTNKAVVSLSNGVSVLTFRVLDLKNYINNQLLPMLNRQSCRISNIETVIEFQQKNSRLLEITREFSVNAGVTTPLSPYMLTNSELLSLINDMPITNDQKKLMSSNVQIVRQQSYSIMCIIKEEVLAYVVQLPIYGVIDTPCWKLHTSPLCTTNIKEGSNICLTRTDRGWYCDNAGSVSFFPQADTCKVQSNRVFCDTMNSLTLPSEVSLCNTDIFNSKYDCKIMTSKTDISSSVITSLGAIVSCYGKTKCTASNKNRGIIKTFSNGCDYVSNKGVDTVSVGNTLYYVNKLEGKNLYVKGEPIINYYDPLVFPSDRFDASISQVNEAINQSREIIRAINIVRKIASEKGSGGSGSGSGGSEKAAKAEEAARKMEELFKKHKIVAVLRANSVEEAIEKAVAVFAGGVHLIEITFTVPDADTVIKALSVLKEKGAIIGAGTVTSVEQARKAVESGAEFIVSPHLDEEISQFAKEKGVFYMPGVMTPTELVKAMKLGHTILKLFPGEVVGPQFVKAMKGPFPNVKFVPTGGVNLDNVAEWFKAGVLAVGVGSALVKGTPDEVREKAKAFVEKIRGATELLEHHHHHH
B2: RSV/B.147 (other)
chain: QNITEEFYQSTCSAVSRGYLSALRTGWYTSVITIELSNIKETKCNGTDTKVKLIKQELDKYKNAVTELQLLMQNTPAVNNRARREAPQYMNYTINTTKNLNVSISKKRKRRFLGFLLGVGSAIASGIAVCKVLHLEGEVNKIKNALQLTNKAVVSLSNGVSVLTFRVLDLKNYINNQLLPMLNRQSCRISNIETVIEFQQKNSRLLEITREFSVNAGVTTPLSTYMLTNSELLSLINDMPITNDQKKLMSSNVQIVRQQSYSIMCIIKEEVLAYVVQLPIYGVIDTPCWKLHTSPLCTTNIKEGSNICLTRTDRGWYCDNAGSVSFFPQADTCKVQSNRVFCDTMNSLTLPSEVSLCNTDIFNSKYDCKIMTSKTDISSSVITSLGAIVSCYGKTKCTASNKNRGIIKTFSNGCDYVSNKGVDTVSVGNTLYYVNKLEGKNLYVKGEPIINYYDPLVFPSDRFDASISQVNEAINQSREIIRAINIVRKIASEKGSGGSGSGSGGSEKAAKAEEAARKMEELFKKHKIVAVLRANSVEEAIEKAVAVFAGGVHLIEITFTVPDADTVIKALSVLKEKGAIIGAGTVTSVEQARKAVESGAEFIVSPHLDEEISQFAKEKGVFYMPGVMTPTELVKAMKLGHTILKLFPGEVVGPQFVKAMKGPFPNVKFVPTGGVNLDNVAEWFKAGVLAVGVGSALVKGTPDEVREKAKAFVEKIRGATELEHHHHHH
B3: RSV/B.172 (other)
chain: B2 chain with T224P, T375D, D464A
B4: RSV/B.195 (other)
chain: B2 chain with R462E, A473K
B5: RSV/B.160 (other)
chain: B2 chain with T224P, T375D, F463W, D464A
B6: RSV/B.178 (other)
chain: B2 chain with T224P, T375D, D461A, D464A
B7: RSV/B.189 (other)
chain: B2 chain with T375D, D461A, F463W, D464A

target: T1, I53-50B.4PosT1; experiment: in vitro assembly with I53-50B, DLS
T1 construct: also called second component; CompB
Method: Selected constructs were incubated with a second component, I53-50B, to form nanostructures. Dynamic Light Scattering (DLS) and negative-stain electron microscopy (nsEM) confirm assembly as nanostructure. A representative electron micrograph is shown in FIG. 5 (RSV/B.195, having the DS-Cav).
Assembly: Molar concentrations for RSV/B or RSV/A trimers fused to I53-50AΔcys and I53-50B (second component, using the sequence of I53-50B.4PosT1, SEQ ID NO:46) were determined using UV-Vis spectroscopy. Absorbance values at 280 nm were collected and divided by calculated molar extinction coefficients (ExPASy). The assembly reaction to produce RSVB antigen-bearing nanostructures was performed in vitro with the addition of components as follows: RSV F trimers fused to I53-50AΔcys were added to PCR tubes in 1.5× molar excess of I53-50B, then assembly buffer (20 mM Tris pH 7.4, 250 mM NaCl, 4% sucrose) was added to the sample in PCR tubes, and finally I53-50B was added to the reaction to bring the assemblies to a final concentration of 7.5 μM and a final volume of 47.5 μL. The reaction was incubated at ambient temperature for ˜30 minutes with gentle rocking prior to subsequent measurement by dynamic light scattering (DLS). All constructs were assembly competent under the conditions tested. Prior to nsEM analysis or immunogenicity studies, assembled nanostructures were further purified by size exclusion chromatography over a Superose 6 Increase 10/300 GL column into 20 mM Tris pH 7.4, 250 mM NaCl, 4% sucrose.

Binder	binding result
B1	binds
B2	binds
B3	binds
B4	binds
B5	binds
B6	binds
B7	binds

From patent US20250188131A1 (ICOSAVAX, published 2025)
